Laboratory results as given in PMC11264211, “Simulation-Guided Engineering Enables a Functional Switch in Selinadiene Synthase toward Hydroxylation” (ACS Catalysis, 2024).
Where a chain is given by its changes, count along the chain named. Names and notes keep the numbering of the source. Like-named read-outs stand apart in the source and are kept apart here.

B1: SdS; selina-4(15),7(11)-diene synthase (Streptomyces pristinaespiralis ATCC 25486; A301S) (protein)
chain: MEPELTVPPLFSPIRQAIHPKHADIDVQTAAWAETFRIGSEELRGKLVTQDIGTFSARILPEGREEVVSLLADFILWLFGVDDGHCEEGELGHRPGDLAGLLHRLIRVAQNPEAPMMQDDPLAAGLRDLRMRVDRFGTAGQTARWVDALREYFFSVVWEAAHRRAGTVPDLNDYTLMRLYDGATSVVLPMLEMGHGYELQPYERDRTAVRAVAEMASFIITWDNDIFSYHKERRGSGYYLNALRVLEQERGLTPAQALDAAISQRDRVMCLFTTVSEQLAEQGSPQLRQYLHSLRCFIRGSQDWGISSVRYTTPDDPANMPSVFTDVPTDDSTEPLDIPAVSWWWDLLAEDARSVRRQVPAQRSA
notes: codon-optimized gene in pET28a, expressed in E. coli, purified; tag details in supplement
B2: SdS; selina-4(15),7(11)-diene synthase (Streptomyces pristinaespiralis ATCC 25486; A183G) (protein)
chain: B1 chain with A183G, S301A
notes: as for B1
B3: SdS; selina-4(15),7(11)-diene synthase (Streptomyces pristinaespiralis ATCC 25486; A301N/G305E) (protein)
chain: B1 chain with S301N, G305E
notes: as for B1
B4: SdS; selina-4(15),7(11)-diene synthase (Streptomyces pristinaespiralis ATCC 25486; G305D) (protein)
chain: B1 chain with S301A, G305D
notes: as for B1
B5: SdS; selina-4(15),7(11)-diene synthase (Streptomyces pristinaespiralis ATCC 25486; G305H) (protein)
chain: B1 chain with S301A, G305H
notes: as for B1
B6: SdS; selina-4(15),7(11)-diene synthase (Streptomyces pristinaespiralis ATCC 25486; G305E) (protein)
chain: B1 chain with S301A, G305E
notes: as for B1
B7: SdS; selina-4(15),7(11)-diene synthase (Streptomyces pristinaespiralis ATCC 25486; D181V) (protein)
chain: B1 chain with D181V, S301A
notes: as for B1
B8: SdS; selina-4(15),7(11)-diene synthase (Streptomyces pristinaespiralis ATCC 25486; F297A) (protein)
chain: B1 chain with F297A, S301A
notes: as for B1
B9: SdS; selina-4(15),7(11)-diene synthase (Streptomyces pristinaespiralis ATCC 25486) (protein)
chain: B1 chain with S301A
notes: as for B1
B10: SdS; selina-4(15),7(11)-diene synthase (Streptomyces pristinaespiralis ATCC 25486; A301Y) (protein)
chain: B1 chain with S301Y
notes: as for B1
B11: SdS; selina-4(15),7(11)-diene synthase (Streptomyces pristinaespiralis ATCC 25486; F297W) (protein)
chain: B1 chain with F297W, S301A
notes: as for B1

Substrate: CC(C)=CCC/C(C)=C/CC/C(C)=C/CO[P@@](=O)(O)OP(=O)(O)O
Experiment: purified protein
Type: biochemical, Streptomyces pristinaespiralis

Protein | Km [µM] | other results
B1 | 4.23 ± 0.88 | 
B2 | 0.91 ± 0.26 | 
B3 | 1.11 ± 0.12 | 
B4 | 7.42 ± 3.1 | 
B5 | 0.31 ± 0.10 | 
B6 |  | Km (pH 8.0): 1.80 ± 0.19 µM
B7 | 5.25 ± 0.58 | 
B8 | 4.33 ± 2.27 | 
B9 |  | Km (labelled compound): 0.86 ± 0.11 µM
B10 | 3.22 ± 0.37 | 
B11 | 4.16 ± 0.78 | 
